Results on four molecules are retold here after paper PMC9578707, “Identification of orphan ligand-receptor relationships using a cell-based CRISPRa enrichment screening platform” (eLife, 2022).

Series [1] addresses T1, growth arrest specific 1 protein (GAS1) (human, UniProt P54826 40-317).
T1 construct: growth arrest specific 1 (GAS1), human; source: Expi293F, purified (Ni-NTA, SEC), not biotinylated (SPR analyte)
T1 sequence (looked up): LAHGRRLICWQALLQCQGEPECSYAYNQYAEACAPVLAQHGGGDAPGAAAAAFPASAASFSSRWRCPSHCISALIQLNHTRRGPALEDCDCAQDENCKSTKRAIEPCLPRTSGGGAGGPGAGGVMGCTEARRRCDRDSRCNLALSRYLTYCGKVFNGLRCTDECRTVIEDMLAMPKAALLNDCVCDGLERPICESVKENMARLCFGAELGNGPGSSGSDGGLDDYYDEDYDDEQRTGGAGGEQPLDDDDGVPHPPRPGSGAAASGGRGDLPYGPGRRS
Nature of the series: SPR; Biacore T100; biotinylated ligand captured on a streptavidin (SA) Series S chip (~100-200 RU); non-biotinylated analyte in twofold dilutions in HBS-P+; 60 s injection at 30 ul/min, 240 s dissociation; regeneration 2 x 10 sec 2M MgCl2; KD from the fit at equilibrium (steady state). The following applies: both partners purified. (In general: SPR reads the build-up and loss of mass on a sensor chip optically.)

For the next series, the target named is ROR1 and MFRP. Nature of the series: SPR; Biacore T100; biotinylated receptor ECD or hit protein captured on a streptavidin chip (~100-200 RU), non-biotinylated secreted ligand as analyte in twofold dilutions; HBS-P+ buffer; 1:1 Langmuir model or equilibrium fit.
A further series has as its target T2, MFRP-ECD (human, UniProt Q9BY79 91-579, biotin (captured on the streptavidin chip)).
T2 construct: membrane Frizzled-related protein, human, extracellular domain; construct of the ECD is not described; also called membrane Frizzled (FZD)-related protein; source: Expi293F, purified (Ni-NTA, SEC)
T2 sequence (looked up): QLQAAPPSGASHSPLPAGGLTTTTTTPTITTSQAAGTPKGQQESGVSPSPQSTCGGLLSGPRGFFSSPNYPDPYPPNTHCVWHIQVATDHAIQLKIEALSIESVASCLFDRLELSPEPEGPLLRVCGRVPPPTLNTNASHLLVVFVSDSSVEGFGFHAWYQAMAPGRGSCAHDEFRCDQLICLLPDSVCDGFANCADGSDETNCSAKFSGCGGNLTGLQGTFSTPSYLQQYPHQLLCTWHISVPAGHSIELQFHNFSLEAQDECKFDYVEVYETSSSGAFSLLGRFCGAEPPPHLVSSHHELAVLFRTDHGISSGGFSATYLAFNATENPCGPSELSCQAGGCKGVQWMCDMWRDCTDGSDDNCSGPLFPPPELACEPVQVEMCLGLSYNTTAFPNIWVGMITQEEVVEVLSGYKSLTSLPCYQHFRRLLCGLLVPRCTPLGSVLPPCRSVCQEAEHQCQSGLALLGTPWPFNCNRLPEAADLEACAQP
Described as above. The note with it: both partners purified.

The target of another series is T3, ROR1-ECD (human, UniProt Q01973 30-406, biotin (captured on the streptavidin chip)).
T3 construct: ROR1, human, extracellular domain; construct of the ECD is not described; source: Expi293F, purified (Ni-NTA, SEC)
The description is as above. The note with it: both partners purified.

Series [2] concerns the target T4, MFRP-ECD (membrane Frizzled-related protein, extracellular domain) (human, UniProt Q9BY79 91-579, biotin (BirA biotinylation; captured on streptavidin chip)).
T4 construct: membrane Frizzled-related protein (MFRP), human, extracellular domain; source: Expi293F, purified (Ni-NTA, SEC), biotinylated in vitro with BirA
T4 sequence (looked up): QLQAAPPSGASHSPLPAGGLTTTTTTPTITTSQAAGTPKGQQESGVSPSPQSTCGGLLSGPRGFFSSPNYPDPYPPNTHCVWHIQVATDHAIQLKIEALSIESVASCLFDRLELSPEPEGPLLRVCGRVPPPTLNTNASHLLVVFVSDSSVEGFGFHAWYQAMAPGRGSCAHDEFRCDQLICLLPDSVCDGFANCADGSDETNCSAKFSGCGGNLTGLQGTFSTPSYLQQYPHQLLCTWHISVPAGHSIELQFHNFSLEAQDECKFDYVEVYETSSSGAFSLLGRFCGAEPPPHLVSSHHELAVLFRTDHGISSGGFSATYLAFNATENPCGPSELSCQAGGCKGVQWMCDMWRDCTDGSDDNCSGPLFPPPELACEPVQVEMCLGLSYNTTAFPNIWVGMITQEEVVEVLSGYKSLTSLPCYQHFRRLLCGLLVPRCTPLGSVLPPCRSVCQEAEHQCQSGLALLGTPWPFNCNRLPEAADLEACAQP
Nature of the series: SPR; Biacore T100; biotinylated ligand captured on a streptavidin (SA) Series S chip (~100-200 RU); non-biotinylated analyte in twofold dilutions in HBS-P+; 60 s injection at 30 ul/min, 240 s dissociation; regeneration 2 x 10 sec 2M MgCl2; KD from the fit at equilibrium (steady state). The following applies: both partners purified.

Series [3] addresses T5, ROR1-ECD (transmembrane receptor tyrosine kinase ROR1, extracellular domain) (human, UniProt Q01973 30-406, biotin (BirA biotinylation; captured on streptavidin chip)).
T5 construct: receptor tyrosine kinase ROR1, human, extracellular domain; source: Expi293F, purified (Ni-NTA, SEC), biotinylated in vitro with BirA
Described as above. The following applies: both partners purified.

Series [4] concerns the molecule itself. Kind of series: SPR; Biacore T100; biotinylated receptor ECD or hit protein captured on a streptavidin chip (~100-200 RU), non-biotinylated secreted ligand as analyte in twofold dilutions; HBS-P+ buffer; 1:1 Langmuir model or equilibrium fit.

B1: PTPRA-ECD (receptor protein tyrosine phosphatase alpha, extracellular domain) (domain or fragment, human, UniProt P18433 20-151, looked up)
chain: NNATTVAPSVGITRLINSSTAEPVKEEAKTSNPTSSLTSLSVAPTFSPNITLGPTYLTTVNSSDSDNGTTRTASTNSIGITISPNGTWLPDNQFTDARTEPWEGNSSTAATTPETFPPSGNSDSKDRRDETP
modifications: biotin (BirA biotinylation; captured on streptavidin chip)
notes: receptor-type protein tyrosine phosphatase alpha (PTPRA, R4 subfamily), human, extracellular domain; source: Expi293F, purified (Ni-NTA, SEC), biotinylated in vitro with BirA
In general, Kd refers to the constant that tells how readily two partners part at equilibrium. A low value points to a tighter complex. B1: the Kd in series [1] was 1.13 µM.

B2: pleiotrophin (ligand, human, UniProt P21246 33-168, looked up)
chain: GKKEKPEKKVKKSDCGEWQWSVCVPTSGDCGLGTREGTRTGAECKQTMKTQRCKIPCNWKKQFGAECKYQFQAWGECDLNTALKTRTGSLKRALHNAECQKTVTISKPCGKLTKPKPQAESKKKKKEGKKQEKMLD
modifications: biotin (biotinylated in vitro with BirA) where used on beads or captured on the chip
notes: pleiotrophin, human; also called PTN; source: Expi293F, purified (Ni-NTA, SEC); not shown: AviTag, C-terminal, kept
For B2, in the series with ROR1 and MFRP, the Kd lay in the range of 1 to 2 µM. Moreover, the binding result in the series with MFRP-ECD and with ROR1-ECD was “binds” each time.

B3: pleiotrophin (PTN) (ligand, human, UniProt P21246 33-168, looked up)
chain: GKKEKPEKKVKKSDCGEWQWSVCVPTSGDCGLGTREGTRTGAECKQTMKTQRCKIPCNWKKQFGAECKYQFQAWGECDLNTALKTRTGSLKRALHNAECQKTVTISKPCGKLTKPKPQAESKKKKKEGKKQEKMLD
notes: pleiotrophin (PTN), human; source: Expi293F, purified (Ni-NTA, SEC), not biotinylated (SPR analyte)
As to B3, the Kd was found to be 1.22 µM in series [2] and 1.66 µM in series [3].

B4: SMOC1 (ligand, human, UniProt Q9H4F8 27-434, looked up)
chain: HRTTGPRFLISDRDPQCNLHCSRTQPKPICASDGRSYESMCEYQRAKCRDPTLGVVHRGRCKDAGQSKCRLERAQALEQAKKPQEAVFVPECGEDGSFTQVQCHTYTGYCWCVTPDGKPISGSSVQNKTPVCSGSVTDKPLSQGNSGRKDDGSKPTPTMETQPVFDGDEITAPTLWIKHLVIKDSKLNNTNIRNSEKVYSCDQERQSALEEAQQNPREGIVIPECAPGGLYKPVQCHQSTGYCWCVLVDTGRPLPGTSTRYVMPSCESDARAKTTEADDPFKDRELPGCPEGKKMEFITSLLDALTTDMVQAINSAAPTGGGRFSEPDPSHTLEERVVHWYFSQLDSNSSNDINKREMKPFKRYVKKKAKPKKCARRFTDYCDLNKDKVISLPELKGCLGVSKEGRLV
modifications: biotin (biotinylated in vitro with BirA) where used on beads or captured on the chip
notes: SMOC1, human; also called SPARC-related ligand; source: Expi293F, purified (Ni-NTA, SEC); not shown: AviTag, C-terminal, kept
For the molecule B4, in series [4], the binding result is listed as “binds”.
